Measurements as given in patent US20230257794A1.

Experiments:
[1] = molecular target: TNFα (UniProt P01375); assay: biolayer interferometry (Octet); fragment secreted by L. gasseri
[2] = molecular target: TNFα (UniProt P01375); assay: biolayer interferometry; fragment secreted by L. rhamnosus GG SP1
[3] = molecular target: HIV-RSC3; assay: biolayer interferometry (Octet); fragment secreted by L. gasseri SP1

UniProt P01375, sequence (P01375 77-233 limits assumed): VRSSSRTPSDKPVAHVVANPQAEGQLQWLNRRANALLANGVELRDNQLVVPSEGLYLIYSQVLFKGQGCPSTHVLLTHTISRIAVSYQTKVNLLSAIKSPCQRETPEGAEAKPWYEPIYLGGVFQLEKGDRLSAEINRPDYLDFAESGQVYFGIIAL

Substance	Kd [1] [nM]	Kd [2] [nM]	Kd [3] [nM]
ozoralizumab (anti-TNFα NANOBODY / antibody fragment marketed by Ablynx) (VHH)	0.69	6.2	
VRC01scFv (anti-HIV single chain fragment derived from the broadly neutralizing IgG antibody VRC01)			10.2
